The results in this text go back to the DeepSol protein solubility set.

The data set can be described thus: soluble on expression in E. coli; label from the status in PepcDB or PDB records.
Turning to “MLWNVDLLKTLNIMYNKILFMNNSFFGRFKKNDNQVIEEQPPVWEDRIFWVETLQKIAFPVLNNLKKESLKKNMSIESFSSESNKFAHLGAFSNVFNGIAPWLELGPDESEEGKIREKYIVLTLKAISNAVNPNSKDYILFTEPKQSLMSMALFAQGLLRSKTQIWNNLPMDVQARVIYELKNTRIIAPFENHWLLFTSMIEATLLEFTGECDRERLTYSIRKFRDEWYLGDAIYADGPEFDVNYYNSIFIHPMLNDILKVMRKYGINEGELLDVQLMRSSRYASQLERIISPEGTYPLLGKSMAYRTGIFHLLAQAALFKILPRNMETSQVRSALTKVLRTQFGGHQNFDNKGWLTIGLNGCQAEIAEKDINTGSLYGCCAIFLPLGLSFNDSFWVGPFEEWTTLKAWNGNPVEPDQSIDFLEHHHHHH”, the “soluble on expression in E. coli” value is “not soluble”.

As to “MSNTQKKNVPELRFPGFEGEWEEKKLGNLTTKIGSGKTPKGGSENYTNKGIPFLRSQNIRNGKLNLNDLVYISKDIDDEMKNSRTYYGDVLLNITGASIGRTAINSIVETHANLNQHVCIIRLKKEYYYNFFGQYLLSRKGKRKIFLAQSGGSREGLNFKEIANLKIFTPTIFEEQQKIGKFFSKLDRQIELEEQKLELLQQQKKGYMQKIFTQELRFKDENGEEYPEWENKFIKDIFIFENNRRKPITSSLREKGLYPYYGATGIIDYVKDYLFNNEERLLIGEDGAKWGQFETSSFIANGQYWVNNHAHVVKSNDHNLFFMNYYLNFKELRAFVTGNAPAKLTHANLCNINLKIPCLTEQDKVSALLKSIDNKMNNQMNRIELLKERKKGLLQKMFI”, the “soluble on expression in E. coli” value is reported as “not soluble”. Take “MTKNPRNNKPKKILDSSYKSKTIWQNYIDALFETFPQLEISEVWAKWDGGNVTKDGGDAKLTANIRTGEHFLKAREAHIVDPNSDIYNTILYPKTGADLPCFGMDLMKFSDKKVIIVFDFQHPREKYLFSVDGLPEDDGKYRFFEMGNHFSKNIFVRYCKPDEVDQYLDTFKLYLTKYKEMIDNNKPVGEDTTVYSDFDTYMTELDPVRGYMKNKFGEGRSEAFVNDFLFSYK”: the “soluble on expression in E. coli” value is “soluble”. “MGSDKIHHHHHHMKNRDWYTSLVSGLLFPLQERLKDHSTVSVRKALELSQWWNRERLENLQLLKLRHLLAEAEAHVPYYRRIFAEIGFKAAEVSSLADLARLPLLDKPAIRADTEALKSQKARSLRSFNTGGSSGEPLTFYIGRERVSHDVAAKWRATRWWDVDIGDPEMVVWGSPIELGAQDRLRMLRDRLLRTRLFPAFEMSEQKLDRFLGELRAAPPRMFFGYPSALSHIARHAQARGQRMDDLGINVAFVTSERLYDEQRQQISKTFGCPVANGYGGRDAGFIAHECPEGGMHITAEDIIVEIVDRQGVPLPCGEAGEIIVTHLSTAEFPFIRYRTGDIGILDDRICRCGRGLPLLREIQGRSTDFVVAQDGTVMHGLALIYILRELPQISHFKIIQESLNLIHIWVVSGAKLDREITAKIEEEFKARLGQSVEVLIEETTEIPAEKSGKFRYVISKIAGA”: the “soluble on expression in E. coli” value is on record as “not soluble”. As to “MGPLVKEKYEEVEQIPLKKPHIVSLIGGFGYREPIFRKVLTTAALDSGINYTLISGPSLDPSKFKEIPKNVQILRFVGDTFPYIRSSDAVIAPGGHSTMMEALSFGTPILSFPDEGHSEQENNAAVIEEEGYGRMLSYSTPPEVILECIREVLEDKKYRDKVKRLQRLASELDGLEHHHHHH”, the “soluble on expression in E. coli” value is listed as “soluble”. “MTYPIPKPREKSRWPNLSQGSLPLALARYLPHKRLKVVLTQDAEQALRLQTAWRFFRPHDTAVFLPDWETLPYERFSPHQDLVSERLSALWQIKSGAADVLFVPVATAMQKLPPVPFLAGRTFWLKTGQTLDIGRLKSDLVDAGYNHVSHVVAAGEFAVRGGIVDLFPMGSEMPYRIDLFDDEIDSIKTFDTETQRTISPVSEIRLLPAHEFPTDSEAQKIFRSRFREEVDGNPNDAAVYKAVSNGHFGAGVEYYLPLFFENELETLFDYIGEDALFVSLDDVHAEANRFWSDVKSRYAMAQGDETYPPLLPQYLYLSADVFAGRLKNYGQVLPDVSGKEYTLPDLAVNRQADEPLQALKDFQTAFDGRILLCAESLGRRETMLGFLQQNGLKAKPVSDWQGFLSAHEPLMITVAPLAYGFKLGGLQSPNQQQPTPSPVGEGWGEGKAVAAQTEFSAAAINPLPSPLPQEREQSAAAVSDSLKAAAVSTESSLPLGTSNLHGQIRQQPAPSPVGEGWGEGKAVAAQTEFPASATNPLPSPLPQEREQSAAAVSDDLKTKSSLHPVANNLHGQIRQQPTPSPVGEGWGEGKAVAAQTEFSAAATNPLPSPLPQEREQSAAVVSDSLKAAAVSTESSLPPGKSNLHGQIQQQPAPSPVGEGWGEGKAVAAQSAIAVITESDLYQYVARSRIHNRRKKHAAVSDGLLRDLAEINIGDPVVHEEHGIGRYMGLVTMDLGGETNEMMLLEYAGEAQLYVPVSQLHLISRYSGQAHENIALHKLGSGAWNKAKRKAAEKARDTAAELLNLYAQRAAQSGHKFEINELDYQAFADGFGYEETEDQAAAIAAVIKDLTQAKPMDRLVCGDVGFGKTEVALRAAFVAVMGGKQVAVLAPTTLLVEQHAQNFADRFADFPVKVASLSRFNNSKATKAALEGMADGTVDIVIGTHKLVQDDIKFKNLGLVIIDEEHRFGVRQKEQLKRLRANVDILTMTATPIPRTLSMALEGLRDFSLITTAPSRRLAVKTFVKPFSEGSVREAVLRELKRGGQVFFLHNEVDTIENMRERLETLLPEARIGVAHGQLRERELEQVMRDFLQQRFNVLLCSTIIETGIDIPNANTIIINRADKFGLAQLHQLRGRVGRSHHQAYAYLLTPEYITKDAEKRLDAIAAADELGAGFTLAMQDLEIRGAGEILGEGQSGEMIQVGFTLYTEMLKQAVRDLKKGRQPDLDAPLGITTEIKLHSPALLPEDYCPDIHERLVLYKRLAVCETVQQINTIHEELVDRFGLPEQPVKTLIESHHLRLMAKELGIDAIDAAGEAVTVTFGKNNNVDPTEIILLIQNDKKYRLAGADKLRFTAEMENIEVRINTVKNVLKTLQNRCLPK”: the “soluble on expression in E. coli” value is listed as “not soluble”. Take “MSLESILITGASGFIGSFIVEEALKRKFGVWAGIRPTSSKKYLKNRKIHFLELDFAHPNELRAQLSGHKGTYNKFDYIIHCAGVTKCPDKNTFDYVNYLQTKYFIDTLKALNMVPKQFIYISTLSVFGPVREKDYSPIEAGDVPMPNTAYGLSKLKAELYIQSIPGFPYVIYRPTGVYGPRELDYFLMAKSIRQHVDFSVGFRRQDLTFVYVKDIVQAIFLGIEKKVTRRAYFLTDGKVYNSRVFSDLIQKELGNPFVIHVKCPLIVLKVISLLAEFIATRSGKSSTLNSDKYKIMKQRNWQCDITPAINELGYAPEYDLEKGVRETIDWYKNEGWEGHHHHHH”: the “soluble on expression in E. coli” value is recorded as “soluble”.

Turning to “MGSDKIHHHHHHDETVYDKLPADDFGQSTAELNALIGNSHNTMKKFWTEYMHLSECSGSMAVTPTRRGGDWYDGGQYREIYMHTWTSQTSRVKSAWKAATEAIGTCNEAIRKLQNSEILTEEEKAQDVADLRGVRAFWIYVMMDYWGNIPLLTEFHPTDKVFPGNSSRQEVFDWLIQEVEEIKDICPPATTENYGSFTQGAAYSLLAKLYLNAEAWGVTFSGNAYQKVIDNCDKVMAMGYILEPNWKDNFSVTNENSKEAILAATFSSSDTGNDGNVKNELHNNTLHYKDYLSLGITASGTWNGICAQPEYVRLFDEEDARLDGTFLTGLMIDKSTGKPIMTDHNNELNHTIDVNMIPGMEYDGTNWSAVEQHDGARCFKWEFASDLTSSMGNDFHIFRLADIYLMKAEALLRGGGSVSEATALVNTIRERGYGNSDHNYATVTLKEVQLERRLELAWEVYSRQDDIRFGCFTTGMWPQSNCERKADDYLKLLPVSQDAWQVNPNLKQNPGYAAFSK”, the “soluble on expression in E. coli” value is “not soluble”. Regarding “KHLPEPFRIRVIEPVKRTTRAYREEAIIKSGMNPFLLDSEDVFIDLLTDSGTGAVTQSMQAAMMRGDEAFSGSRSYYALAESVKNIFGYQYTIPTHQGRGAEQIYIPVLIKKREQEKGLDRSKMVAFSNYFFDTTQGHSQINGCTVRNVYIKEAFDTGVRYDFKGNFDLEGLERGIEEVGPNNVPYIVATITSNSAGGQPVSLANLKAMYSIAKKYDIPVVMDSARFAENAYFIKQREAEYKDWTIEQITRETYKYADMLAMSAKKDAMVPMGGLLCMKDDSFFDVYTECRTLCVVQEGFPTYGGLEGGAMERLAVGLYDGMNLDWLAYRIAQVQYLVDGLEEIGVVCQQAGGHAAFVDAGKLLPHIPADQFPAQALACELYKVAGIRAVEIGSFLLGRDPKTGKQLPCPAELLRLTIPRATYTQTHMDFIIEAFKHVKENAANIKGLTFTYEPKVLRHFTAKLKEV”, the “soluble on expression in E. coli” value is on record as “soluble”.

Take “MSLAQPCAIIDLETTGGNIARDRITEVGMVLIDGERVERLSWLVNPGQPIPPFIENMTGISNEMVAGAPPFSAQADELLDRLQGRLLLAHNARFDYGFLKNEFRRHGLRFQARALCTVKLSRRLYPQHFKHSLDSLIARHGIDMPERHRALADAEAVYRFIRIAEAELGEDRVAHEAAQLLSQPAELSSLPAELQQQIEEGHHHHHH”: the “soluble on expression in E. coli” value is “not soluble”. In the case of HHASPRKQGKKENGPPHSHTLKGRRLVFDN, the “soluble on expression in E. coli” value was “soluble”. For “MNNILNQIKKEVNMDLLNGLWPGFKRAAFALYDDEHVYVFHHPLFLKDNDEYRVLKWEEQFKGDTCILFKDYPTAIVNMNRYKDYASLLAIVVHELFHCYQYLNKESRFPNESLGFQYPIIEENIQLRNKERICLYDAVHCKSQAEKNNYIKQFIELREQRASVMGEAFITYEYMVESIEGPAWYVEMNAYNTVCKSDESDTLRKYSGLILDVYDANCNMRKSCYSSGMLLCLLLDEILPEWKISFFNSDKSLYAFLKQNINVDLSLNNEITISKETKQILHFVQNERDKEIKQFYGEEGYDLYIVGDIKLNSFNPMNVKLNGNKVLHKTFLSVSIHNKTYMINQPVLASFEEDFKNMTQVHIIMNEKPIETKNG”, the “soluble on expression in E. coli” value was “not soluble”. To “MHPTGPQLGPDVLFRESKMKVTLTFNEQRRAAYRQQGLWGDASLADYWQQTARAMPDKIAVVDNHGASYTYSALDHAASCLANWMLAKGIESGDRIAFQLPGWCEFTVIYLACLKIGAVSVPLLPSWREAELVWVLNKCQAKMFFAPTLFKQTRPVDLILPLQNQLPQLQQIVGVDKLAPATSSLSLSQIIADNIPLTTAITTHGDELAAVLFTSGTEGLPKGVMLTHNNILASERAYCARLNLTWLDVFMMPAPLGHATGFLHGVTAPFLIGARSVLLDIFTPDACLALLEQQRCTCMLGATPFVYDLLNLLEKQPADLSALRFFLCGGTTIPKKVARECQQRSIKLLSVYGSTESSPHAVVNLDNSLSRFMHTDGYAAAGVEIKVVDDARKTLPPGCEGEEASRGPNVFMGYFDEPELTARALDEEGWYYSGDLCRMDEAGYIKITGRKKDIIVRGGENISSREVEDILLQHPKIHDACVVAMPDERLGERSCAYVVLKAPHHSLSLEEMAAFFSRKRVAKYKYPEHIVVIEKLPRTASDKIQKFLLRKDIIRRLTQDVCEEIE” belongs “not soluble”; to “MGSDKIHHHHHHMRILFVTEYYPPIHMGGAEISLKILVNKLAKLGHEVTVITPNYTKYKTETEISKNLRVIRFKSWRYFLFKKQLRKISSEIYLRKKSSYYFQLNGYIKLSSFEIMKVVKELLQKEDFDVIHANNLESILGLSKLQVNTKVAHLRDFALLCWNRGLNNNGKLCEGCSLTNIRQCMGANYILGSALVHEINKRKNVLGKFDKILAISNFVKMEFVKRLNIPTEKISVLYNPITQEIVSNISKEEARQYLNLPEDKTIVLFVGTLTELKGAHLIPKIAKELPEHLFVVVGDGPLRKMFTEFPLENVLYVGYQPMEILRHYYKASDILLVPSLWHEPFGRVIIEGAANGCYVVGSDKGAIPEIIHWIGYGTSVPPQSKYFVEAIKNAPQTTKHEKLKIKIINYSHKYAEKFIKAIME”, “not soluble”.
